The chains are these.
B1: Thyroid hormone receptor beta (Homo sapiens), P10828-1 (parent)
chain: MTPNSMTENGLTAWDKPKHCPDREHDWKLVGMSEACLHRKSHSERRSTLKNEQSSPHLIQTTWTSSIFHLDHDDVNDQSVSSAQTFQTEEKKCKGYIPSYLDKDELCVVCGDKATGYHYRCITCEGCKGFFRRTIQKNLHPSYSCKYEGKCVIDKVTRNQCQECRFKKCIYVGMATDLVLDDSKRLAKRKLIEENREKRRREELQKSIGHKPEPTDEEWELIKTVTEAHVATNAQGSHWKQKRKFLPEDIGQAPIVNAPEGGKVDLEAFSHFTKIITPAITRVVDFAKKLPMFCELPCEDQIILLKGCCMEIMSLRAAVRYDPESETLTLNGEMAVTRGQLKNGGLGVVSDAIFDLGMSLSSFNLDDTEVALLQAVLLMSSDRPGLACVERIEKYQDSFLLAFEHYINYRKHHVTHFWPKLLMKVTDLRMIGACHASRFLHMKVECPTELFPPLFLEVFED

The variants in assay [1] derive from B1. The following applies: with ncor2_human NCOR2, Q9Y618.
ncor2_human NCOR2, Q9Y618, sequence (Q9Y618 whole entry): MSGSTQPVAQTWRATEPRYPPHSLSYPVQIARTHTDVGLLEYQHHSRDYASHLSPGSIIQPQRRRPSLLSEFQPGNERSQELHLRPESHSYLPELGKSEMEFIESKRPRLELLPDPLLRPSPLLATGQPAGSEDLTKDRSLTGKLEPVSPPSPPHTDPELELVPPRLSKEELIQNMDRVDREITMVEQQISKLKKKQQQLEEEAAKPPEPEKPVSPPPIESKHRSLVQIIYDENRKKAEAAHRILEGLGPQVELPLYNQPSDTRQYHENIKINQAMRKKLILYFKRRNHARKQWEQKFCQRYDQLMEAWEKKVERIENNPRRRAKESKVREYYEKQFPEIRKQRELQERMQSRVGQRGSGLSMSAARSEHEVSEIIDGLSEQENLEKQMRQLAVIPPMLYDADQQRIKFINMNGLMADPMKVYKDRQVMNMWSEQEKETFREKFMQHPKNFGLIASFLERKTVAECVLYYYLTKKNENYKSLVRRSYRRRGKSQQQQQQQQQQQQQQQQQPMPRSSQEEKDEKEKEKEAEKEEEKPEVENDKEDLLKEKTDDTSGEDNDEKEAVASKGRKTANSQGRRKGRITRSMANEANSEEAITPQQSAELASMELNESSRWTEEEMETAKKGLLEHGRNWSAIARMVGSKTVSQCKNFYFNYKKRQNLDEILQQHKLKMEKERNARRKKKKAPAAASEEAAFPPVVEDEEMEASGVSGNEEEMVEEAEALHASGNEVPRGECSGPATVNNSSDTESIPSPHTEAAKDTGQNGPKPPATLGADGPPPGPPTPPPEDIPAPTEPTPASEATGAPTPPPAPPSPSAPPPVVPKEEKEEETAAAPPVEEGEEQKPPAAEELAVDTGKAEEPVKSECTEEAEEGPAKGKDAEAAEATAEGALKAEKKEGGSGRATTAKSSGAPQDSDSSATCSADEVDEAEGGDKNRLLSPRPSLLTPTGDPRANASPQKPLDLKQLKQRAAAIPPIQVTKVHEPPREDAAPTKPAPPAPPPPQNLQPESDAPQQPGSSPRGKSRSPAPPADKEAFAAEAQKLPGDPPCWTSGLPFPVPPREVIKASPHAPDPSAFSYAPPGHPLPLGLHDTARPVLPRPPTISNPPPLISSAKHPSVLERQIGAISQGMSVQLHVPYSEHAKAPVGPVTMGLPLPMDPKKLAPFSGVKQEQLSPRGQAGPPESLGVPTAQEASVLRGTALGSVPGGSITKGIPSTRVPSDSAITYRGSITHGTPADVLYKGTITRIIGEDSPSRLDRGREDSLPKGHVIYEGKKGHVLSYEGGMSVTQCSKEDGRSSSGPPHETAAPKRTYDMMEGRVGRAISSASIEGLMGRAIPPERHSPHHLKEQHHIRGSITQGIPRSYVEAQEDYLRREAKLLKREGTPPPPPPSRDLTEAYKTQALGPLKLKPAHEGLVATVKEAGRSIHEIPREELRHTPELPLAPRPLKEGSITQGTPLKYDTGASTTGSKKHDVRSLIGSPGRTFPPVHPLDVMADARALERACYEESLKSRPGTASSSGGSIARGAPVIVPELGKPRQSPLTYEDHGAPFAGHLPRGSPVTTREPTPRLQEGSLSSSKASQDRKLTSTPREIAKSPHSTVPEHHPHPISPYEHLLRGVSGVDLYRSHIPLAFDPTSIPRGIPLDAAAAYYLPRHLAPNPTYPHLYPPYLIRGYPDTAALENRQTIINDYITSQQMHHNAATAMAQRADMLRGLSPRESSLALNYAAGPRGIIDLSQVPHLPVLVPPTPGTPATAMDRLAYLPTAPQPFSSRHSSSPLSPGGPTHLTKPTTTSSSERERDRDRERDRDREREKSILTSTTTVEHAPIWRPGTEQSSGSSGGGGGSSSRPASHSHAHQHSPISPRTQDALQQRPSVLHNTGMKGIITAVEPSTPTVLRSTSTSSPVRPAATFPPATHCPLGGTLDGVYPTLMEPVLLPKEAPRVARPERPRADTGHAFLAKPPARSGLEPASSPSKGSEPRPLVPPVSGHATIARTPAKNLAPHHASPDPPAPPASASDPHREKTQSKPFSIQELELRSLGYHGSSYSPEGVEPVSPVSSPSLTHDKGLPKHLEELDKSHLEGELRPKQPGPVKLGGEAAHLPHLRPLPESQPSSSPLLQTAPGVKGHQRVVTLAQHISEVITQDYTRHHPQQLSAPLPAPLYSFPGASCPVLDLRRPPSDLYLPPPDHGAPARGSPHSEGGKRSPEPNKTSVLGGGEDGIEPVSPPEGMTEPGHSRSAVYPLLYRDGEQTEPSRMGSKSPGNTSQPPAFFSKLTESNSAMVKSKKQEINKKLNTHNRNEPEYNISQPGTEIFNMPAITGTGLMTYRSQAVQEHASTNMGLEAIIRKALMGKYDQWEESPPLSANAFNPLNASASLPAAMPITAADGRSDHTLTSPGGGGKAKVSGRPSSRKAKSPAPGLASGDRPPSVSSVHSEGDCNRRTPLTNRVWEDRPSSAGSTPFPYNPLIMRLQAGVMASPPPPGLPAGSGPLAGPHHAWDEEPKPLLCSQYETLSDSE
Variants of B1 are the subject of assay [2]. As to conditions: with ncoa1_human NCOA1, Q15788.
ncoa1_human NCOA1, Q15788, sequence (Q15788 whole entry): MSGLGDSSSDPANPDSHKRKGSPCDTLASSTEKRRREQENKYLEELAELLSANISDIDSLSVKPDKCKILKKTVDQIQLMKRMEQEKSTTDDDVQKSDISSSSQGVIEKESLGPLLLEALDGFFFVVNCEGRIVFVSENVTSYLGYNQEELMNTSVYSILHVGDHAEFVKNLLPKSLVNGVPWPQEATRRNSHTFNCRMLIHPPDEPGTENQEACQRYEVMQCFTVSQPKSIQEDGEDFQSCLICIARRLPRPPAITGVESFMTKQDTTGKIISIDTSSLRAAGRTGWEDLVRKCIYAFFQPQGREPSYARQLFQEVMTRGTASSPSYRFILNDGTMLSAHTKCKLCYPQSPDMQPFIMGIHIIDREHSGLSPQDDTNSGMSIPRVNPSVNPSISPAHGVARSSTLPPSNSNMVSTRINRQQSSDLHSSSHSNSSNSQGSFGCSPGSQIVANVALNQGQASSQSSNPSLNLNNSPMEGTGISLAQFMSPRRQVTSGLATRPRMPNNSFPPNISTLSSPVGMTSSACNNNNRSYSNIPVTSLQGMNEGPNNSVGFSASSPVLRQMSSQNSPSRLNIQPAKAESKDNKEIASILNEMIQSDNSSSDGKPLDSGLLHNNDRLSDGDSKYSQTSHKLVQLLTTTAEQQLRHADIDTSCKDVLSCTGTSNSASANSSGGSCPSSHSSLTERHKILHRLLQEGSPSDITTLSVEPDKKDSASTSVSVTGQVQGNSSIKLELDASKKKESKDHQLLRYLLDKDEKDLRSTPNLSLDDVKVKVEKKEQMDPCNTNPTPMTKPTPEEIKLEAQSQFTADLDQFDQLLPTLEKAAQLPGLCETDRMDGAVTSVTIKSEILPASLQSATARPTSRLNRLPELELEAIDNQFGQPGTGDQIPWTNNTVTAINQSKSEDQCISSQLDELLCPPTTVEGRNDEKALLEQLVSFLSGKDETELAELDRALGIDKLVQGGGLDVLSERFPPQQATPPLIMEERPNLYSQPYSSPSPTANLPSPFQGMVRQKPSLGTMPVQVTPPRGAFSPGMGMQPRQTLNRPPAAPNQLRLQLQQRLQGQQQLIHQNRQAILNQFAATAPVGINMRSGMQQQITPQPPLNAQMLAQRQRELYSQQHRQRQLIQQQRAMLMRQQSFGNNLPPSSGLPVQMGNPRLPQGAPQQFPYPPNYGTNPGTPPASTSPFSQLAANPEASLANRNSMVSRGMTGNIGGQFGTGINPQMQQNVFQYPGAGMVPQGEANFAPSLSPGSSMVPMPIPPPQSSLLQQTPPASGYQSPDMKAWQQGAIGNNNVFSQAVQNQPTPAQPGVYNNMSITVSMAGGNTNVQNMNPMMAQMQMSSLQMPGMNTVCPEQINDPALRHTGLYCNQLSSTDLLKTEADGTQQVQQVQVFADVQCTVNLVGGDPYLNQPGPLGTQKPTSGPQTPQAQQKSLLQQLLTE

For the variant R383H, the “effect of a mutation on the interaction” value in assay [1] and in assay [2] was “increasing interaction strength” throughout.
With R429Q, the “effect of a mutation on the interaction” value in assay [1] and in assay [2] was “increasing interaction strength” throughout.

The record behind these values is IntAct's records for PubMed 9605924.
